± gives the standard deviation of the averaged measurements.
Test: total protein half-life in vivo (active degradation + dilution); higher = more stable protein
[1] = E. coli NCM3722 delta-clpP delta-lon delta-hslV, growth: N-lim chemostat, doubling time 6 h
[2] = E. coli NCM3722 delta-clpP, growth: N-lim chemostat, doubling time 6 h
[3] = E. coli NCM3722 delta-smpB, growth: N-lim chemostat, doubling time 6 h
[4] = wild type E. coli NCM3722, growth: C-lim chemostat, doubling time 3 h
[5] = wild type E. coli NCM3722, growth: C-lim chemostat, doubling time 6 h
[6] = wild type E. coli NCM3722, growth: C-lim chemostat, doubling time 12 h
[7] = wild type E. coli NCM3722, growth: N-lim chemostat, doubling time 6 h
[8] = wild type E. coli NCM3722, growth: N-lim chemostat, doubling time 12 h
[9] = wild type E. coli NCM3722, growth: P-lim chemostat, doubling time 6 h
[10] = wild type E. coli NCM3722, growth: P-lim chemostat, doubling time 12 h
[11] = E. coli NCM3722 delta-hslV, growth: N-lim chemostat, doubling time 6 h
[12] = E. coli NCM3722 delta-lon, growth: N-lim chemostat, doubling time 6 h

Sequence	total protein half-life in vivo [1] [h]	total protein half-life in vivo [2] [h]	total protein half-life in vivo [3] [h]	total protein half-life in vivo [4] [h]	total protein half-life in vivo [5] [h]	total protein half-life in vivo [6] [h]	total protein half-life in vivo [7] [h]	total protein half-life in vivo [8] [h]	total protein half-life in vivo [9] [h]	total protein half-life in vivo [10] [h]	total protein half-life in vivo [11] [h]	total protein half-life in vivo [12] [h]
MNSCDFRVFLQEFGTTVHLSLPGSVSEKERLLLKLLMQGMSVTEISQYRNRSAKTISHQKKQLFEKLGIQSDITFWRDIFFQYNPEIISATGSNSHRYINDNHYHHIVTPEAISLALENHEFKPWIQPVFCAQTGVLTGCEVLVRWEHPQTGIIPPDQFIPLAESSGLIVIMTRQLMKQTADILMPVKHLLPDNFHIGINVSAGCFLAAGFEKECLNLVNKLGNDKIKLVLELTERNPIPVTPEARAIFDSLHQHNITFALDDFGTGYATYRYLQAFPVDFIKIDKSFVQMASVDEISGHIVDNIVELARKPGLSIVAEGVETQEQADLMIGKGVHFLQGYLYSPPVPGNKFISEWVMKAGG	6.19 ± 0.079	5.64 ± 0.26	5.76 ± 0.27	3.346 ± 0.027	5.06 ± 0.71	10.4 ± 2.6	5.94 ± 0.41	10.9 ± 0.36	5.76 ± 0.1	12.3 ± 1.1	–	–
MRTFSGKRSTLALAIAGVTAMSGFMAMPEARAEGFIDDSTLTGGIYYWQRERDRKDVTDGDKYKTNLSHSTWNANLDFQSGYAADMFGLDIAAFTAIEMAENGDSSHPNEIAFSKSNKAYDEDWSGDKSGISLYKAAAKFKYGPVWARAGYIQPTGQTLLAPHWSFMPGTYQGAEAGANFDYGDAGALSFSYMWTNEYKAPWHLEMDEFYQNDKTTKVDYLHSFGAKYDFKNNFVLEAAFGQAEGYIDQYFAKASYKFDIAGSPLTTSYQFYGTRDKVDDRSVNDLYDGTAWLQALTFGYRAADVVDLRLEGTWVKADGQQGYFLQRMTPTYASSNGRLDIWWDNRSDFNANGEKAVFFGAMYDLKNWNLPGFAIGASYVYAWDAKPATWQSNPDAYYDKNRTIEESAYSLDAVYTIQDGRAKGTMFKLHFTEYDNHSDIPSWGGGYGNIFQDERDVKFMVIAPFTIF	–	–	–	1.45	2.07	2.36	–	–	–	–	–	–
MKISRETLHQLIENKLCQAGLKREHAATVAEVLVYADARGIHSHGAVRVEYYAERISKGGTNREPEFRLEETGPCSAILHADNAAGQVAAKMGMEHAIKTAQQNGVAVVGISRMGHSGAISYFVQQAARAGFIGISMCQSDPMVVPFGGAEIYYGTNPLAFAAPGEGDEILTFDMATTVQAWGKVLDARSRNMSIPDTWAVDKNGVPTTDPFAVHALLPAAGPKGYGLMMMIDVLSGVLLGLPFGRQVSSMYDDLHAGRNLGQLHIVINPNFFSSSELFRQHLSQTMRELNAITPAPGFNQVYYPGQDQDIKQRKAAVEGIEIVDDIYQYLISDALYNTSYETKNPFAQ	–	–	–	2.88	5.52 ± 0.59	–	–	–	–	> 16	–	–
MKPQVYHVDAFTSQPFRGNSAGVVFPADNLSEAQMQLIARELGHSETAFLLHSDDSDVRIRYFTPTVEVPICGHATVAAHYVRAKVLGLGNCTIWQTSLAGKHRVTIEKHNDDYRISLEQGTPGFEPPLEGETRAAIINALHLTEDDILPGLPIQVATTGHSKVMIPLKPEVDIDALSPDLNALTAISKKIGCNGFFPFQIRPGKNETDGRMFSPAIGIVEDPVTGNANGPMGAWLVHHNVLPHDGNVLRVKGHQGRALGRDGMIEVTVTIRDNQPEKVTISGTAVILFHAEWAIEL	> 8	4.73	6.56	–	–	–	–	–	–	–	–	–
MTDKTSLSYKDAGVDIDAGNALVGRIKGVVKKTRRPEVMGGLGGFGALCALPQKYREPVLVSGTDGVGTKLRLAMDLKRHDTIGIDLVAMCVNDLVVQGAEPLFFLDYYATGKLDVDTASAVISGIAEGCLQSGCSLVGGETAEMPGMYHGEDYDVAGFCVGVVEKSEIIDGSKVSDGDVLIALGSSGPHSNGYSLVRKILEVSGCDPQTTELDGKPLADHLLAPTRIYVKSVLELIEKVDVHAIAHLTGGGFWENIPRVLPDNTQAVIDESSWQWPEVFNWLQTAGNVEHHEMYRTFNCGVGMIIALPAPEVDKALALLNANGENAWKIGIIKASDSEQRVVIE	4.99 ± 0.091	4.62 ± 1	4.258 ± 0.021	2.94 ± 0.24	5.66 ± 0.063	11.1 ± 0.42	4.53 ± 0.17	7.47 ± 0.71	4.7 ± 0.29	9.07 ± 2	4.47 ± 0.064	5.23 ± 0.1
MNILLAFKAEPDAGMLAEKEWQAAAQGKSGPDISLLRSLLGADEQAAAALLLAQRKNGTPMSLTALSMGDERALHWLRYLMALGFEEAVLLETAADLRFAPEFVARHIAEWQHQNPLDLIITGCQSSEGQNGQTPFLLAEMLGWPCFTQVERFTLDALFITLEQRTEHGLRCCRVRLPAVIAVRQCGEVALPVPGMRQRMAAGKAEIIRKTVAAEMPAMQCLQLARAEQRRGATLIDGQTVAEKAQKLWQDYLRQRMQP	5.73 ± 0.78	–	–	–	–	–	–	–	–	–	–	–
MPIHDKSPRPQEFAAVDLGSNSFHMVIARVVDGAMQIIGRLKQRVHLADGLGPDNMLSEEAMTRGLNCLSLFAERLQGFSPASVCIVGTHTLRQALNATDFLKRAEKVIPYPIEIISGNEEARLIFMGVEHTQPEKGRKLVIDIGGGSTELVIGENFEPILVESRRMGCVSFAQLYFPGGVINKENFQRARMAAAQKLETLTWQFRIQGWNVAMGASGTIKAAHEVLMEMGEKDGIITPERLEKLVKEVLRHRNFASLSLPGLSEERKTVFVPGLAILCGVFDALAIRELRLSDGALREGVLYEMEGRFRHQDVRSRTASSLANQYHIDSEQARRVLDTTMQMYEQWREQQPKLAHPQLEALLRWAAMLHEVGLNINHSGLHRHSAYILQNSDLPGFNQEQQLMMATLVRYHRKAIKLDDLPRFTLFKKKQFLPLIQLLRLGVLLNNQRQATTTPPTLTLITDDSHWTLRFPHDWFSQNALVLLDLEKEQEYWEGVAGWRLKIEEESTPEIAA [P0AFL6]	5.76 ± 0.2	5.22 ± 0.12	3.68 ± 0.057	2.45 ± 0.086	4.69 ± 0.06	6.58 ± 0.48	3.83 ± 0.3	5.86 ± 0.01	3.96 ± 0.56	6.77 ± 0.37	3.78 ± 0.22	3.95 ± 0.21
MVTHRQRYREKVSQMVSWGHWFALFNILLSLVIGSRYLFIADWPTTLAGRIYSYVSIIGHFSFLVFATYLLILFPLTFIVGSQRLMRFLSVILATAGMTLLLIDSEVFTRFHLHLNPIVWQLVINPDENEMARDWQLMFISVPVILLLELVFATWSWQKLRSLTRRRRFARPLAAFLFIAFIASHVVYIWADANFYRPITMQRANLPLSYPMTARRFLEKHGLLDAQEYQRRLIEQGNPDAVSVQYPLSELRYRDMGTGQNVLLITVDGLNYSRFEKQMPALAGFAEQNISFTRHMSSGNTTDNGIFGLFYGISPSYMDGILSTRTPAALITALNQQGYQLGLFSSDGFTSPLYRQALLSDFSMPSVRTQSDEQTATQWINWLGRYAQEDNRWFSWVSFNGTNIDDSNQQAFARKYSRAAGNVDDQINRVLNALRDSGKLDNTVVIITAGRGIPLSEEEETFDWSHGHLQVPLVIHWPGTPAQRINALTDHTDLMTTLMQRLLHVSTPASEYSQGQDLFNPQRRHYWVTAADNDTLAITTPKKTLVLNNNGKYRTYNLRGERVKDEKPQLSLLLQVLTDEKRFIAN [P0AD27]	6.51 ± 0.23	–	6.0496 ± 0.0024	3.37 ± 0.44	5.62 ± 0.63	12.8 ± 0.27	6.18 ± 0.89	12.9 ± 1.1	6.34 ± 0.1	11.8 ± 0.67	–	5.92 ± 0.086

Source: the supplement of paper PMC11246515
